Results taken from patent publication US20220227882A1 (TRUSTEES OF TUFTS COLLEGE, published 2022).

T1: Recombinant human ADAM15 (Sino Biological, 10517-H08H) (human, UniProt Q13444 18-696)
T1 sequence (looked up): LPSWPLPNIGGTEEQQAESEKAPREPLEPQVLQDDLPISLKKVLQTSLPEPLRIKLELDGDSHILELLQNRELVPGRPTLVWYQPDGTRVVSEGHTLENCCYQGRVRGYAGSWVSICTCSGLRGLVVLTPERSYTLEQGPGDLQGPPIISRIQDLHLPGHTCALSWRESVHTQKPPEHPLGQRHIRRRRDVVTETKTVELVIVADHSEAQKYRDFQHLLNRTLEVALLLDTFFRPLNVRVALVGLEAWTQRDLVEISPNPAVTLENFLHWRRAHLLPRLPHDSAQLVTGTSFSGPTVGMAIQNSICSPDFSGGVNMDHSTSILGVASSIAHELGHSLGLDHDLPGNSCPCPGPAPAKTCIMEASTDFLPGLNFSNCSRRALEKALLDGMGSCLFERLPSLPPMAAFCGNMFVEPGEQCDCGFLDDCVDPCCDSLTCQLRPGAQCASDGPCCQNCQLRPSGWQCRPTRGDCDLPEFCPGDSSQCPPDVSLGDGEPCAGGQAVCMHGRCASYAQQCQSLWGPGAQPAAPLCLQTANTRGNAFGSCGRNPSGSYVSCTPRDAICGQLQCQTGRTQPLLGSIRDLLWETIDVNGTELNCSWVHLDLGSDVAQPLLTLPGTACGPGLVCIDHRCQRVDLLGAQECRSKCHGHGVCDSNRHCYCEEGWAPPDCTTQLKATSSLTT

T2: Recombinant human ADAM12 (Acro Biosystems, AD2-H5228) (human, UniProt O43184 208-708)
T2 sequence (looked up): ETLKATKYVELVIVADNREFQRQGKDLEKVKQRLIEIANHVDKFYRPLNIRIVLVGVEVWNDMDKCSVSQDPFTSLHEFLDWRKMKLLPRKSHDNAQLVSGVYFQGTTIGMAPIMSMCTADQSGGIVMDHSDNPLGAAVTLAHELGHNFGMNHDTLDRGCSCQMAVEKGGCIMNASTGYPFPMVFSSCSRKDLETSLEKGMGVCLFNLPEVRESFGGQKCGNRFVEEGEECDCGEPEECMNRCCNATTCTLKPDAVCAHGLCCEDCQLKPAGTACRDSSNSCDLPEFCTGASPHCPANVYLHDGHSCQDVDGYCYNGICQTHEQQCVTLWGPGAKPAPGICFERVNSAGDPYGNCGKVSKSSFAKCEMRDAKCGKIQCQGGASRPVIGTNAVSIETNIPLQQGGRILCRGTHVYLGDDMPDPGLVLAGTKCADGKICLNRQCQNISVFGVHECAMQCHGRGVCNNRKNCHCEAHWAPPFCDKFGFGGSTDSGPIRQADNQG


Legend:
[1] = target: T1, Recombinant human ADAM15 (Sino …); assay: ELISA, recombinant ADAM15
Method: (§1) ELISA assays were also used to test hybridoma clones, subclones and purified ADP antibodies for specificity of ADAM8 binding, i.e., binding to rHuADAM8 (Acro Biosystems, AD8-H5223) was compared to binding to closely related recombinant human ADAM proteins: […], ADAM12 (Acro Biosystems, AD2-H5228) and ADAM15 (Sino Biological, 10517-H08H). For analysis of clones and subclones, 50 μl of cell supernatants were used. A test bleed sample (1:1000) was used as a positive control. Hybridoma culture medium or a pre-bleed serum sample (1:1000) was used as a negative control. Purified mouse ADPs were assessed at 1 μg/ml vs normal mouse IgG and with a test bleed sample as a positive control. ADP binding was detected with a goat anti-mouse IgG (Fc specific)-peroxidase antibody (1:5000, Sigma-Aldrich, A0168).

[2] = target: T2, Recombinant human ADAM12 (Acro …); assay: ELISA, recombinant ADAM12
Method: as §1

Binder | binding result [1] | binding result [2]
ADP2 (antibody, V domains shown, also called mADP2; mouse ADP2) VH: EVKLVESGGGLVQPGGSLSLSCAASGFSFPDYYMSWVRQPPGKALEWLGFIRDSANGYTTEYIASVKGRFTFSRDNSQSILYLQMNALRAEDSATYYCARYSRYYGMDYWGQGTSVTVSS VL: SIVMTQTPKILLVSAGDRVTITCKASQTVNYDVAWYQQKPGQSPKPVIYFASNRYTGVPDRFTGSGFGTDFTFTISTVQAEDLAVYFCQQDYSAPWTFGGGTKLEIK | no binding (tested: 1 µg/ml) | –
ADP3 (antibody, IgG1, V domains shown) VH: EVKLEESGGGLVQPGGSMKLSCAASGFTFSDAWMDWVRQSPEKGLEWVAEIRGKVNNLATYYVESVKGRFTISRDDSKSSVYLQMNSLRAEDTGIYYCLGRYDATYAMDYWGQGTSVTVSS VL: DVVMTQTPLSLPVSLGDQASISCRSSQSLVHSDGNTYLHWYLQKPGQSPKLLIYKLSNRFSGVPDRFSGSGSGTDFTLKISRVEAEDLGVYFCSQSTHVPWTFGGGTKLEIK | – | no binding (tested: 1 µg/ml)
